Experimental data from patent US20230391845A1, “GLP-1, GIP AND GLUCAGON RECEPTOR TRIPLE AGONISTS” (priority 2020, published 2023).
Where no end group is shown, it is not given here. [ ]: non-standard residue; d: D form. Aib = CC(C)(N)C(=O)O

Tests used:
Experiment in all cases: cell-based or functional assay
[1] = target: human glucagon-like peptide 1 receptor (human, UniProt P43220 24-463)
[2] = target: T1, human glucose-dependent insulinotropic polypeptide receptor (human, UniProt P48546 22-466)
T1 sequence (looked up): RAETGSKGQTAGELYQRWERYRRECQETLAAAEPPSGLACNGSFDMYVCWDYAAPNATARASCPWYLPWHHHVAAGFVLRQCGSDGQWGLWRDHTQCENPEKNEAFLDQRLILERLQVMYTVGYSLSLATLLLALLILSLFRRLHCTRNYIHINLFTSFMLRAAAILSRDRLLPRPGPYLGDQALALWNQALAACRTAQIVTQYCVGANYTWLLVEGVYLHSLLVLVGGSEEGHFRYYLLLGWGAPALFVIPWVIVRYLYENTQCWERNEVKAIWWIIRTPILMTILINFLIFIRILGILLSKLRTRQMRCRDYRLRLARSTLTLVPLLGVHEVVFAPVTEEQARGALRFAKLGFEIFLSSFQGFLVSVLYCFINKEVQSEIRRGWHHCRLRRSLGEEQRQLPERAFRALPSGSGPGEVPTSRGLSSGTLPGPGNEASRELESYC

human glucagon receptor = human glucagon receptor (human, UniProt P47871 26-477)
Sequence of human glucagon receptor (P47871 26-477): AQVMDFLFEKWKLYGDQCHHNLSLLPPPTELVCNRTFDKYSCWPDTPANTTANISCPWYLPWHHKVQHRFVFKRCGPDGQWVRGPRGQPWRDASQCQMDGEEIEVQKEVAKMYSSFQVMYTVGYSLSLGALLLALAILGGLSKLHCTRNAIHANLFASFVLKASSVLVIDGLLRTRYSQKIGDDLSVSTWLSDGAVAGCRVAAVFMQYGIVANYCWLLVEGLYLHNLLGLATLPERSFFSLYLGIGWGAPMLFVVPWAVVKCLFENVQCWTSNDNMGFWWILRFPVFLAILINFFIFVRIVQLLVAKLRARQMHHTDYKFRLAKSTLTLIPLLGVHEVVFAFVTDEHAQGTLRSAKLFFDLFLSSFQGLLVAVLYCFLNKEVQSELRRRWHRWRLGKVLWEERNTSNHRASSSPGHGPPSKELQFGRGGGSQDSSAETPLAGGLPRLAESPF

B1: Compound No. 18 (peptide)
peptide: Y[Aib]HGTFTSDYSIYLEKQAA[Aib]EFVQWLLEGGPSSGAPPPS-NH2
modifications: not fully specified (residue 16); printed as Y-Aib-HGTFTSDYSIYLE-K[(2S)-2-amino-6-[[(2S)-2-amino-6-[[(4S)-4-carboxy-4-(19-carboxynonadecanoylamino)butanoyl]amino]hexanoyl]amino]hexanoyl]-QAA-Aib-EFVQWLLEGGPSSGAPPPS-NH2
- hGLP-1R CRE Luc EC50 (pM) [1]: 106 pM
- hGIPR CRE Luc EC50 (pM) [2]: 7.1 pM
- hGcgR CRE Luc EC50 (pM) (human glucagon receptor): 72.1 pM

B2: Compound No. 14 (peptide)
peptide: Y[Aib]QGTFTSDYSIYLEKQAA[Aib]EFVQWLLEGGPSSGAPPPS-NH2
modifications: not fully specified (residue 16); printed as Y-Aib-QGTFTSDYSIYLE-K[2-[2-[2-[[2-[2-[2-[[(4S)-4-carboxy-4-[[4-[(19-carboxynonadecanoylamino)methyl]cyclohexanecarbonyl]amino]butanoyl]amino]ethoxy]ethoxy]acetyl]amino]ethoxy]ethoxy]acetyl]-QAA-Aib-EFVQWLLEGGPSSGAPPPS-NH2
- hGLP-1R CRE Luc EC50 (pM) [1]: 4.3 pM
- hGIPR CRE Luc EC50 (pM) [2]: 4.2 pM
- hGcgR CRE Luc EC50 (pM) (human glucagon receptor): 287 pM

B3: Compound No. 15 (peptide)
peptide: Y[Aib]QGTFTSDYSIYLEKQAA[Aib]EFVNWLLAGGPSSGAPPPS-NH2
modifications: not fully specified (residue 16); printed as Y-Aib-QGTFTSDYSIYLE-K[2-[2-[2-[[2-[2-[2-[[(4S)-4-carboxy-4-(19-carboxynonadecanoylamino)butanoyl]amino]ethoxy]ethoxy]acetyl]amino]ethoxy]ethoxy]acetyl]-QAA-Aib-EFVNWLLAGGPSSGAPPPS-NH2
- hGLP-1R CRE Luc EC50 (pM) [1]: 1.4 pM
- hGIPR CRE Luc EC50 (pM) [2]: 4.8 pM
- hGcgR CRE Luc EC50 (pM) (human glucagon receptor): 267 pM

B4: Compound No. 16 (peptide)
peptide: Y[Aib]QGTFTSDYSIYLEKQAA[Aib]EFVQWLLEGGPSSGAPPPS-NH2
modifications: not fully specified (residue 16); printed as Y-Aib-QGTFTSDYSIYLE-K[2-[2-[2-[[2-[2-[2-[[(4S)-4-carboxy-4-(19-carboxynonadecanoylamino)butanoyl]amino]ethoxy]ethoxy]acetyl]amino]ethoxy]ethoxy]acetyl]-QAA-Aib-EFVQWLLEGGPSSGAPPPS-NH2
- hGLP-1R CRE Luc EC50 (pM) [1]: 3.1 pM
- hGIPR CRE Luc EC50 (pM) [2]: 11.4 pM
- hGcgR CRE Luc EC50 (pM) (human glucagon receptor): 185 pM

B5: Compound No. 17 (peptide)
peptide: Y[Aib]QGTFTSDYSIYLEKQAA[Aib]EFVQWLLEGGPSSGAPPPS-NH2
modifications: not fully specified (residue 16)
- hGLP-1R CRE Luc EC50 (pM) [1]: 2.8 pM
- hGIPR CRE Luc EC50 (pM) [2]: 7 pM
- hGcgR CRE Luc EC50 (pM) (human glucagon receptor): 86.6 pM
